# Reference: paper PMC3608507 (Molecular Biology of the Cell, 2013)
# Read-outs that look alike come from different tables or passages of the source.
# T1: His-lasp-2 (full-length) (UniProt Q9DC07 1-270)
# T1 sequence: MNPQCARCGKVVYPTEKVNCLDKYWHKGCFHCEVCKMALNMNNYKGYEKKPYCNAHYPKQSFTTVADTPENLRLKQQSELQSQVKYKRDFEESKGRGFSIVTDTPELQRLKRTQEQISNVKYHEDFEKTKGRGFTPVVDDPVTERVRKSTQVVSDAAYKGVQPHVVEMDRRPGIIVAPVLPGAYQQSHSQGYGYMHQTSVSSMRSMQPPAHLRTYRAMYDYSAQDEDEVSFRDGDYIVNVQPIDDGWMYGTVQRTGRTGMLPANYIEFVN
# B1: His-vinculin-tail (amino acids 840-1066) (domain or fragment)
# chain: PDFPPPPPDLEQLRLTDELAPPKPPLPEGEVPPPRPPPPEEKDEEFPEQKAGEVINQPMMMAARQLHDEARKWSSKGNDIIAAAKRMALLMAEMSRLVRGGSGTKRALIQCAKDIAKASDEVTRLAKEVAKQCTDKRIRTNLLQVCERIPTISTQLKILSTVKATMLGRTNISDEESEQATEMLVHNAQNLMQSVKETVREAEAASIKIRTDAGFTLRWVRKTPWYQ
# B2: GST-lasp-2 (full-length) (natural protein)
# chain: T1 sequence
# B3: GST-lasp-1 (full-length) (natural protein)
# chain: MNPNCARCGKIVYPTEKVNCLDKYWHKACFHCETCKMTLNMKNYKGYEKKPYCNAHYPKQSFTMVADTPENLRLKQQSELQSQVRYKEEFEKNKGKGFSVVADTPELQRIKKTQDQISNIKYHEEFEKSRMGPSGGEGVEPERREAQDSSSYRRPTEQQQPQPHHIPTSAPVYQQPQQQQMTSSYGGYKEPAAPVSIQRSAPGGGGKRYRAVYDYSAADEDEVSFQDGDTIVNVQQIDDGWMYGTVERTGDTGMLPANYVEAI
# What was measured:
# Test in all cases: ELISA
# [1] = biological target: T1, His-lasp-2 (full-length)
# [2] = biological target: His-paxillin (full-length) (UniProt P49023 1-591)
# [3] = biological target: T1, His-lasp-2 (full-length); remark: listed apart in the source
# Chain of His-paxillin (full-length) (P49023 whole entry): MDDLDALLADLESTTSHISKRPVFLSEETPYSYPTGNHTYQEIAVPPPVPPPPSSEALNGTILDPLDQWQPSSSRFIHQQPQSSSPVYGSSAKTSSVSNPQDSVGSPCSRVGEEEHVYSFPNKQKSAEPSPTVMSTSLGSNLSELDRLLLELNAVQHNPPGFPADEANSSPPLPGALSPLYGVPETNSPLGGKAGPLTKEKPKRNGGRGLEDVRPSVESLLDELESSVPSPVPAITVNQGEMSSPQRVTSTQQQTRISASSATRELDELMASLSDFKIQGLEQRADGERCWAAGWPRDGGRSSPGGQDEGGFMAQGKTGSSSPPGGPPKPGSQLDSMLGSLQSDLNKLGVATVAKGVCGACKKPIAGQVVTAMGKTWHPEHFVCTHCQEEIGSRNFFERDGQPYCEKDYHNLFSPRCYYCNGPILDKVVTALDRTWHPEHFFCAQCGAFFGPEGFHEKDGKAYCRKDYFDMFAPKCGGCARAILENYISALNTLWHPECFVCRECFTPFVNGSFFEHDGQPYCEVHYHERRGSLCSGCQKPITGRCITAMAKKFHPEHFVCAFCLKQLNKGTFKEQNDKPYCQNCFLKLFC
binder,measurement,setting,value
B1,Kd,[1],~140 nM
B2,Kd,[2],~20 nM
B3,Kd,[3],~15 nM
